This is an account of results in patent US20090181034A1 (AGENSYS, published 2009).

In experiment [1] the target is T1, PSCA (prostate stem cell antigen), human (human, UniProt O43653 12-83).
T1 construct: Tested on cells: SW780, LAPC9AI, PC3-PSCA, B300.19-PSCA, prostate cancer xenograft cells and tumour tissue; also called PSCA v.1; PSCA variant 1
Kind of experiment: FACS titration on SW780 cells, anti-hIgG-PE, Prism sigmoidal dose-response fit.
Experimental: A panel of seven (7) anti-human PSCA antibodies was tested for their binding affinity to PSCA on SW780 cells, a human bladder cancer cell line expressing high level of PSCA. […] At the end of the incubation, cells were washed and incubated with anti-hIgG-PE detection antibody for 45 min at 4° C. After washing the unbound detection antibodies, the cells were analyzed by FACS; MFI values of each point were obtained using CellQuest Pro software and were used for affinity calculation using Graphpad Prism software: Sigmoidal Dose-Response (variable slope) equation (Table VII and Table VIII).

Another experiment addresses T2, murine PSCA (mouse, UniProt P57096 21-95).
T2 construct: whole, on cells; also called mouse PSCA; Mouse-PSCA
T2 sequence (looked up): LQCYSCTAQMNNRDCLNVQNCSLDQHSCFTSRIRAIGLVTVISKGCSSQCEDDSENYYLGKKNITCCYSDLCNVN
Kind of experiment: FACS on 293T cells expressing murine PSCA, anti-hIgG-PE.

Experimental for murine PSCA: The cells were incubated with the respective antibodies using the following protocol. […] Specific recognition was determined using anti-hIgG-PE secondary detection antibody.

B1: Ha1-5.99 (antibody, IgG2, V domains shown)
VH: QVHLQQWGAGLLKPSETLSLTCAVYGGSFSGYYWSWIRQPPGKGLEWIGEINHSGSTSYKPSLKSRVTVSVDTSKNQFSLKLSYVTAADTAVYYCARDRGDYGDFLFDYWGQGTLVTVSS
VL: SPGERATLSCRASQSIGSTYLAWYQQKPGQAPRLLIYGASSRATGIPERFSGSGSGTDFTLTISGLEPEDFAVFYCQQCGSSPPTFGQGTKVEIKR
notes: Fully human MAb from human gamma 2 producing XenoMouse (IgG2, kappa), hybridoma ATCC PTA-6703; Ha1-5.99.1 (subclone label) is treated as the same antibody; also called HA1-5.99.1; Ha1-5.99.1
Turning to B1, the affinity in experiment [1], expressed as Kd, was 0.28 nM.

B2: Ha1-4.37 (antibody, IgG1, V domains shown)
VH: PGALQESGPGLVRPSQTLSLTCTVSGGSISSGGTYYWIWIRQHPGKGLEWIGYIYYSGSTYYNPSLKSRVTISVDTSKNQFSLKLSSVTAADTAVYYCARDGITMVRGISGGMDVWGQGTTVTVSS
VL: ASVGDRVTITCRASQSISSHLNWYQQKPGKAPKLLIYAASSLQSGVPSRFSGSGSGTDFTLSISSLQPEDFATYFCQQSYSIPRTFGQGTKVEITR
notes: Fully human MAb from human gamma 1 producing XenoMouse (IgG1, kappa), hybridoma ATCC PTA-6702
Consider B2, for which the Kd in experiment [1] stood at 0.23 nM.

B3: Ha1-4.117 (antibody, V domains shown)
VH: QVQLQESGPGLVKPSQTLSLTCTVSGGSISSGGYYWIWIRQHPGKGLEWIGYIYYNGNTYYNPSLKSRVTMSVDTSKNQFSLKLSSVTAADTAVYYCARDGITMIRGYYYGMDVWGQGTTVTVSS
VL: QLTQSPSSVSASVGDRVTITCRASRGISSWLAWYQQKPGKAPKLLIYTASSLQSGVPSRFSGSGSGTDFTLTISSLQPEDFATYYCQQAYSFPRTFGQGTKVEIKR
notes: Fully human MAb from human gamma 1 producing XenoMouse (IgG1, kappa), hybridoma ATCC PTA-6699; A fluorescein conjugate was used for IHC
In the case of B3, the binding result with murine PSCA is “binds”. For the same molecule, in experiment [1], the dissociation constant Kd was 0.32 nM.

B4: Ha1-1.16 (antibody, IgG1, V domains shown)
VH: QVQLQQSGPGLVKPSQTLSLTCAISGDSVSSNSAAWNWIRQSPSRGLEWLGRTYYRSKWYNGYAVSVKSRMTINPDTSKNQFSLQLNSVTPEDTAVYYCARERLGELYGMDVWGQGTTVTVSS
VL: QLTQSPDSLAVSLGERATINCKSSQNILYRSSKKNHLVWYQQKPGQPPKLLIYWASTRESGVPARFSGSGSGTDFTLTISTLQAEDVAVYYCQQYYSTPPTFGQGTRLEIKR
notes: Fully human MAb from human gamma 1 producing XenoMouse immunized with PSCA-GST (IgG1, kappa), hybridoma ATCC PTA-6698; Ha1-1.16.1 (subclone label) is treated as the same antibody; also called Ha1-1.16.1
Take B4: the binding result in the experiment with murine PSCA was “no binding”. In experiment [1], this molecule showed a Kd of 6.91 nM.

As a reminder, the Kd is the constant that tells how readily two partners part at equilibrium. A low value points to a tighter complex.
